T1: CEACAM5 (UniProt P06731 35-685)
T1 construct: also called carcinoembryonic antigen-related cell adhesion molecule 5; CD66e
T1 sequence (looked up): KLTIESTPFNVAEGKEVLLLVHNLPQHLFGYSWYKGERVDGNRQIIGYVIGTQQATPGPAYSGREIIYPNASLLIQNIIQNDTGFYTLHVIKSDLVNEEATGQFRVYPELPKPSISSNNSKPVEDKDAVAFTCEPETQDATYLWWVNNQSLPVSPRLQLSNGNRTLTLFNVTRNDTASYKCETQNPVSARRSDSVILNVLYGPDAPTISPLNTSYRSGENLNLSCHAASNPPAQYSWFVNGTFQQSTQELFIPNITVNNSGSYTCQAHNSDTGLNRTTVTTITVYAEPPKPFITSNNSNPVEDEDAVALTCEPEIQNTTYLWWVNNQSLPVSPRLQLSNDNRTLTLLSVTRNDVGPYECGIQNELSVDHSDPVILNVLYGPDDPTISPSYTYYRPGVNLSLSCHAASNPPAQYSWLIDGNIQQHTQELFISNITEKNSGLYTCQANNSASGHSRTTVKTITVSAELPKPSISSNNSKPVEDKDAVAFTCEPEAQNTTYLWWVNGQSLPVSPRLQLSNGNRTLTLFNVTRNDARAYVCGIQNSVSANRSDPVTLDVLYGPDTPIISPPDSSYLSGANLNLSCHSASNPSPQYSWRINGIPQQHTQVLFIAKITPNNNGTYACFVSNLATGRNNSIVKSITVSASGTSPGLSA


Key:
[1] = molecular target: T2, human CD28 (human, UniProt P10747 19-152); experiment: CD28 affinity of the scFv arm as quoted in the text; method not given
T2 construct: also called Cluster of Differentiation 28; Tp44

[2] = molecular target: T1, CEACAM5; experiment: CEACAM5 affinity as quoted in the text; method not given
[3] = molecular target: T1, CEACAM5; experiment: affinity at 25 C (Octet per FIG. 79 legend)
[4] = molecular target: T2, human CD28; experiment: CD28 affinity as quoted in the text; method not given

Binder | Kd [2] | Kd [3] | further results
XENP44332 (bispecific antibody) heavy: EVKLVESGGGLVQPGGSLRLSCATSGFTFTDYYMNWVRQPPGKALEWLGFIGNKANGYTTEYSASVKGRFTISRDKSQSILYLQMNTLRAEDSATYYCTRDRGLRFYFDYWGQGTTLTVSSASTKGPSVFPLAPSSKSTSGGTAALGCLVKDYFPEPVTVSWNSGALTSGVHTFPAVLQSSGLYSLSSVVTVPSSSLGTQTYICNVNHKPSDTKVDKKVEPKSCDKTHTCPPCPAPPVAGPSVFLFPPKPKDTLMISRTPEVTCVVVDVKHEDPEVKFNWYVDGVEVHNAKTKPREEEYNSTYRVVSVLTVLHQDWLNGKEYKCKVSNKALPAPIEKTISKAKGQPREPQVYTLPPSREEMTKNQVSLTCDVSGFYPSDIAVEWESDGQPENNYKTTPPVLDSDGSFFLYSKLTVDKSRWEQGDVFSCSVMHEALHNHYTQKSLSLSPGK scFv-Fc: not shown light: QTVLSQSPAILSASPGEKVTMTCRASSSVTYIHWYQQKPGSSPKSWIYATSNLASGVPARFSGSGSGTSYSLTISRVEAEDAATYYCQHWSSKPPTFGGGTKLEIKRTVAAPSVFIFPPSDEQLKSGTASVVCLLNNFYPREAKVQWKVDNALQSGNSQESVTEQDSKDSTYSLSSTLTLSKADYEKHKVYACEVTHQGLSSPVTKSFNRGEC |  |  | Kd [1]: 37 nM
XENP44338 (bispecific antibody) heavy: EVKLVESGGGLVQPGGSLRLSCATSGFTFTDYYMNWVRQPPGKALEWLGFIGNKANGYTTEYSASVKGRFTISRDKSQSILYLQMNTLRAEDSATYYCTRDRGLRFYFDYWGQGTTLTVSSASTKGPSVFPLAPSSKSTSGGTAALGCLVKDYFPEPVTVSWNSGALTSGVHTFPAVLQSSGLYSLSSVVTVPSSSLGTQTYICNVNHKPSDTKVDKKVEPKSCDKTHTCPPCPAPPVAGPSVFLFPPKPKDTLMISRTPEVTCVVVDVKHEDPEVKFNWYVDGVEVHNAKTKPREEEYNSTYRVVSVLTVLHQDWLNGKEYKCKVSNKALPAPIEKTISKAKGQPREPQVYTLPPSREEMTKNQVSLTCDVSGFYPSDIAVEWESDGQPENNYKTTPPVLDSDGSFFLYSKLTVDKSRWEQGDVFSCSVMHEALHNHYTQKSLSLSPGK scFv-Fc: not shown light: QTVLSQSPAILSASPGEKVTMTCRASSSVTYIHWYQQKPGSSPKSWIYATSNLASGVPARFSGSGSGTSYSLTISRVEAEDAATYYCQHWSSKPPTFGGGTKLEIKRTVAAPSVFIFPPSDEQLKSGTASVVCLLNNFYPREAKVQWKVDNALQSGNSQESVTEQDSKDSTYSLSSTLTLSKADYEKHKVYACEVTHQGLSSPVTKSFNRGEC | ~0.7 nM |  | 
XENP44560 (bispecific antibody, copies: 1 + 1 + 1) heavy: EVKLVESGGGLVQPGGSLRLSCATSGFTFTDYYMNWVRQPPGKALEWLGFIGNKANGYTTEYSASVKGRFTISRDKSQSILYLQMNTLRAEDSATYYCTRDRGLRFYFDYWGQGTTLTVSSASTKGPSVFPLAPSSKSTSGGTAALGCLVKDYFPEPVTVSWNSGALTSGVHTFPAVLQSSGLYSLSSVVTVPSSSLGTQTYICNVNHKPSDTKVDKKVEPKSCDKTHTCPPCPAPPVAGPSVFLFPPKPKDTLMISRTPEVTCVVVDVKHEDPEVKFNWYVDGVEVHNAKTKPREEEYNSTYRVVSVLTVLHQDWLNGKEYKCKVSNKALPAPIEKTISKAKGQPREPQVYTLPPSREEMTKNQVSLTCDVSGFYPSDIAVEWESDGQPENNYKTTPPVLDSDGSFFLYSKLTVDKSRWEQGDVFSCSVMHEALHNHYTQKSLSLSPGK scFv-Fc: not shown light: QTVLSQSPAILSASPGEKVTMTCRASSSVTYIHWYQQKPGSSPKSWIYATSNLASGVPARFSGSGSGTSYSLTISRVEAEDAATYYCQHWSSKPPTFGGGTKLEIKRTVAAPSVFIFPPSDEQLKSGTASVVCLLNNFYPREAKVQWKVDNALQSGNSQESVTEQDSKDSTYSLSSTLTLSKADYEKHKVYACEVTHQGLSSPVTKSFNRGEC |  |  | Kd [1]: 96 nM
CEA-A_H1L2 (antibody, V domains shown, also called HIL2) VH: EVQLVESGGGLVQPGGSLRLSCATSGFTFTDYYMNWVRQAPGKALEWVGFIGNKANGYTTEYSASVKGRFTISRDKSKSSLYLQMNSLKTEDTAVYYCTRDRGLRFYFDYWGQGTLVTVSS VL: EIVLTQSPATLSLSPGERATLSCRASSSVTYIHWYQQKPGQAPRLLIYATSNLASGIPARFSGSGSGTDFTLTISSLEPEDFAVYYCQHWSSKPPTFGGGTKVEIK |  | 57 to 69 nM | 
XENP44745 (bispecific antibody) chain 1: EVQLVESGGGLVQPGGSLRLSCATSGFTFTDYYMNWVRQAPGKALEWVGFIGNKANGYTTEYSASVKGRFTISRDKSKSSLYLQMNSLKTEDTAVYYCTRDRGLRFYFDYWGQGTLVTVSS chain 2: QTVLTQSPATLSLSPGERATLSCRASSSVTYIHWYQQKPGQSPRSLIYATSNLASGVPARFSGSGSGTDYTLTISSLEPEDFAVYYCQHWSSKPPTFGGGTKVEIK chain 3: not shown | 5 nM |  | 
XENP44746 (bispecific antibody) chain 1: EVQLVESGGGLVQPGGSLRLSCATSGFTFTDYYMNWVRQAPGKALEWVGFIGNKANGYTTEYSASVKGRFTISRDKSKSSLYLQMNSLKTEDTAVYYCTRDRGLRFYFDYWGQGTLVTVSS chain 2: EIVLTQSPATLSLSPGERATLSCRASSSVTYIHWYQQKPGQAPRLLIYATSNLASGIPARFSGSGSGTDFTLTISSLEPEDFAVYYCQHWSSKPPTFGGGTKVEIK chain 3: not shown | 57 nM |  | 
CEA-A_H1L1 (antibody, V domains shown, also called humanized H1L1) VH: EVQLVESGGGLVQPGGSLRLSCATSGFTFTDYYMNWVRQAPGKALEWVGFIGNKANGYTTEYSASVKGRFTISRDKSKSSLYLQMNSLKTEDTAVYYCTRDRGLRFYFDYWGQGTLVTVSS VL: QTVLTQSPATLSLSPGERATLSCRASSSVTYIHWYQQKPGQSPRSLIYATSNLASGVPARFSGSGSGTDYTLTISSLEPEDFAVYYCQHWSSKPPTFGGGTKVEIK |  | 5 to 8 nM | 
CEA-A_H0L0 (antibody, V domains shown, also called parental CEA-A) VH: EVKLVESGGGLVQPGGSLRLSCATSGFTFTDYYMNWVRQPPGKALEWLGFIGNKANGYTTEYSASVKGRFTISRDKSQSILYLQMNTLRAEDSATYYCTRDRGLRFYFDYWGQGTTLTVSS VL: QTVLSQSPAILSASPGEKVTMTCRASSSVTYIHWYQQKPGSSPKSWIYATSNLASGVPARFSGSGSGTSYSLTISRVEAEDAATYYCQHWSSKPPTFGGGTKLEIK |  | 0.7 to 2 nM | 
XENP45915 (bispecific antibody) heavy: EVQLVESGGGLVQPGGSLRLSCAASGFTFTDYYMNWVRQAPGKGLEWVGFIGNKANAYTTEYSASVKGRFTISRDKSKSSLYLQMNSLKTEDTAVYYCTRDRGLRFYFDYWGQGTLVTVSSASTKGPSVFPLAPSSKSTSGGTAALGCLVKDYFPEPVTVSWNSGALTSGVHTFPAVLQSSGLYSLSSVVTVPSSSLGTQTYICNVNHKPSDTKVDKKVEPKSCDKTHTCPPCPAPPVAGPSVFLFPPKPKDTLMISRTPEVTCVVVDVKHEDPEVKFNWYVDGVEVHNAKTKPREEEYNSTYRVVSVLTVLHQDWLNGKEYKCKVSNKALPAPIEKTISKAKGQPREPQVYTLPPSREEMTKNQVSLTCDVSGFYPSDIAVEWESDGQPENNYKTTPPVLDSDGSFFLYSKLTVDKSRWEQGDVFSCSVLHEALHSHYTQKSLSLSPGK scFv-Fc: not shown light: EIVLTQSPATLSLSPGERATLSCRASSSVTYIHWYQQKPGQAPKSLIYATSNLASGIPARFSGSGSGTDFTLTISSLEPEDFAVYYCQHWSSKPPTFGGGTKVEIKRTVAAPSVFIFPPSDEQLKSGTASVVCLLNNFYPREAKVQWKVDNALQSGNSQESVTEQDSKDSTYSLSSTLTLSKADYEKHKVYACEVTHQGLSSPVTKSFNRGEC |  |  | Kd [4]: 26 nM
XENP44915 (bispecific antibody, human IgG1, kappa) heavy: EVQLVESGGGLVQPGGSLRLSCAASGFTFTDYYMNWVRQAPGKGLEWVGFIGNKANAYTTEYSASVKGRFTISRDKSKSSLYLQMNSLKTEDTAVYYCTRDRGLRFYFDYWGQGTLVTVSSASTKGPSVFPLAPSSKSTSGGTAALGCLVKDYFPEPVTVSWNSGALTSGVHTFPAVLQSSGLYSLSSVVTVPSSSLGTQTYICNVNHKPSDTKVDKKVEPKSCDKTHTCPPCPAPPVAGPSVFLFPPKPKDTLMISRTPEVTCVVVDVKHEDPEVKFNWYVDGVEVHNAKTKPREEEYNSTYRVVSVLTVLHQDWLNGKEYKCKVSNKALPAPIEKTISKAKGQPREPQVYTLPPSREEMTKNQVSLTCDVSGFYPSDIAVEWESDGQPENNYKTTPPVLDSDGSFFLYSKLTVDKSRWEQGDVFSCSVLHEALHSHYTQKSLSLSPGK scFv-Fc: not shown light: EIVLTQSPATLSLSPGERATLSCRASSSVTYIHWYQQKPGQAPKSLIYATSNLASGIPARFSGSGSGTDFTLTISSLEPEDFAVYYCQHWSSKPPTFGGGTKVEIKRTVAAPSVFIFPPSDEQLKSGTASVVCLLNNFYPREAKVQWKVDNALQSGNSQESVTEQDSKDSTYSLSSTLTLSKADYEKHKVYACEVTHQGLSSPVTKSFNRGEC |  |  | Kd [4]: 130 nM

— patent US20250043001A1 (Xencor, published 2025)
